From the supplement of paper PMC9112550, “Optimization of the antimicrobial peptide Bac7 by deep mutational scanning” (BMC Biology, 2022) come the findings set out here.

This series has as its system Escherichia coli TOP10. Nature of the series: shrunken log2 fold change of peptide-encoding DNA abundance (4.5 h post-induction vs induction); higher = less antimicrobial activity (less host growth inhibition). The conditions noted are these: time post-induction: 4.5 h; library: site-saturation at positions 5, 18, 19, 20.
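Further: peptides expressed intracellularly from a pBAD plasmid library in pooled LB shake-flask culture, induced with 0.3% L-arabinose, DNA abundance read by NGS, three biological replicates, DESeq2 with apeglm shrinkage.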

As to RRIRDRPPRLPRPRPRPEMNPRP, the “shrunken log2 fold change” value was determined as 0.128.

For the sequence RRIRDRPPRLPRPRPRPRHWPRP, the “shrunken log2 fold change” value came out at 0.548.

In the case of RRIRPRPPRLPRPRPRPYPAPRP, the “shrunken log2 fold change” value was -0.582.

Regarding RRIRWRPPRLPRPRPRPWIMPRP, the “shrunken log2 fold change” value was -0.0381.

On to RRIRNRPPRLPRPRPRPVWFPRP, for which the “shrunken log2 fold change” value was -0.113.

Take RRIRIRPPRLPRPRPRPDMGPRP: the “shrunken log2 fold change” value was -0.0742.

In the case of RRIRYRPPRLPRPRPRPPGVPRP, the “shrunken log2 fold change” value turned out to be 0.259.

In the case of RRIRGRPPRLPRPRPRPYWHPRP, the “shrunken log2 fold change” value is -0.627.

RRIRARPPRLPRPRPRPTWHPRP: the “shrunken log2 fold change” value is 0.419.

With RRIRMRPPRLPRPRPRPQMIPRP, the “shrunken log2 fold change” value is -0.0999.

Take RRIRGRPPRLPRPRPRPNTYPRP: the “shrunken log2 fold change” value turned out to be 0.106.

Turning to RRIRYRPPRLPRPRPRPLPFPRP, the “shrunken log2 fold change” value was -0.78.

In the case of RRIRARPPRLPRPRPRPPWDPRP, the “shrunken log2 fold change” value came to 0.72.

Consider RRIRYRPPRLPRPRPRPTFCPRP, for which the “shrunken log2 fold change” value turned out to be 0.115.

In the case of RRIRERPPRLPRPRPRPGWEPRP, the “shrunken log2 fold change” value is 0.0307.

For the sequence RRIRFRPPRLPRPRPRPHRVPRP, the “shrunken log2 fold change” value is -0.137.

Turning to RRIRARPPRLPRPRPRPENRPRP, the “shrunken log2 fold change” value was found to be 0.0495.

In the case of RRIRVRPPRLPRPRPRPPKCPRP, the “shrunken log2 fold change” value is -0.173.

As for RRIRARPPRLPRPRPRPWKGPRP, the “shrunken log2 fold change” value stood at 0.142.

For RRIRWRPPRLPRPRPRPCILPRP, the “shrunken log2 fold change” value was -0.39.

As for RRIRQRPPRLPRPRPRPDYGPRP, the “shrunken log2 fold change” value was -0.159.

As to RRIRDRPPRLPRPRPRPYWFPRP, the “shrunken log2 fold change” value was -0.579.

RRIRDRPPRLPRPRPRPSRTPRP: the “shrunken log2 fold change” value came out at 0.208.

In the case of RRIRVRPPRLPRPRPRPGELPRP, the “shrunken log2 fold change” value is -0.0483.

Consider RRIRMRPPRLPRPRPRPQTDPRP, for which the “shrunken log2 fold change” value came out at 0.19.

Consider RRIRFRPPRLPRPRPRPKVGPRP, for which the “shrunken log2 fold change” value was -0.01.

As for RRIRGRPPRLPRPRPRPQHHPRP, the “shrunken log2 fold change” value was -0.102.

On to RRIRARPPRLPRPRPRPHHAPRP, for which the “shrunken log2 fold change” value was found to be 0.0775.

RRIRRRPPRLPRPRPRPHLHPRP: the “shrunken log2 fold change” value came to 0.216.

With RRIRIRPPRLPRPRPRPCVEPRP, the “shrunken log2 fold change” value was -0.0421.

RRIRDRPPRLPRPRPRPGRIPRP: the “shrunken log2 fold change” value is -0.136.

In the case of RRIRERPPRLPRPRPRPCMHPRP, the “shrunken log2 fold change” value was -0.0148.

For the sequence RRIRERPPRLPRPRPRPGLYPRP, the “shrunken log2 fold change” value is -0.233.

For RRIRWRPPRLPRPRPRPLTRPRP, the “shrunken log2 fold change” value was found to be 2.04.

RRIRVRPPRLPRPRPRPLFAPRP: the “shrunken log2 fold change” value came out at 0.477.

For RRIRPRPPRLPRPRPRPCYFPRP, the “shrunken log2 fold change” value was -0.0997.

As for RRIRGRPPRLPRPRPRPEFLPRP, the “shrunken log2 fold change” value is 1.01.

For the sequence RRIRARPPRLPRPRPRPHIYPRP, the “shrunken log2 fold change” value is -0.805.

For the sequence RRIRNRPPRLPRPRPRPIAKPRP, the “shrunken log2 fold change” value is -0.000903.

As for RRIRGRPPRLPRPRPRPPIFPRP, the “shrunken log2 fold change” value came to 0.35.

Take RRIRDRPPRLPRPRPRPVWVPRP: the “shrunken log2 fold change” value is -0.203.

On to RRIRRRPPRLPRPRPRPHIAPRP, for which the “shrunken log2 fold change” value was -0.0643.

RRIRVRPPRLPRPRPRPMIEPRP: the “shrunken log2 fold change” value is -0.255.

RRIRRRPPRLPRPRPRPNHQPRP: the “shrunken log2 fold change” value is -0.0677.

Consider RRIRPRPPRLPRPRPRPTCSPRP, for which the “shrunken log2 fold change” value is 0.265.

On to RRIRWRPPRLPRPRPRPNIKPRP, for which the “shrunken log2 fold change” value was -0.384.

In the case of RRIRKRPPRLPRPRPRPFLVPRP, the “shrunken log2 fold change” value is 0.00497.

RRIRCRPPRLPRPRPRPECWPRP: the “shrunken log2 fold change” value was found to be 0.669.

Regarding RRIRYRPPRLPRPRPRPVLTPRP, the “shrunken log2 fold change” value was -0.0151.

In the case of RRIRIRPPRLPRPRPRPFPLPRP, the “shrunken log2 fold change” value was -0.547.

For RRIRLRPPRLPRPRPRPLSYPRP, the “shrunken log2 fold change” value was 0.128.

As to RRIRQRPPRLPRPRPRPTIMPRP, the “shrunken log2 fold change” value was -0.127.

As for RRIRMRPPRLPRPRPRPHTPPRP, the “shrunken log2 fold change” value was determined as 0.137.

Turning to RRIRWRPPRLPRPRPRPCMFPRP, the “shrunken log2 fold change” value was -0.244.

For RRIRGRPPRLPRPRPRPSVFPRP, the “shrunken log2 fold change” value was 0.465.

In the case of RRIRGRPPRLPRPRPRPNEGPRP, the “shrunken log2 fold change” value turned out to be 0.0414.

For RRIRIRPPRLPRPRPRPLHDPRP, the “shrunken log2 fold change” value came to 0.181.

Regarding RRIRKRPPRLPRPRPRPGMWPRP, the “shrunken log2 fold change” value turned out to be 0.438.

RRIRTRPPRLPRPRPRPPSRPRP: the “shrunken log2 fold change” value was determined as 0.191.

For RRIRVRPPRLPRPRPRPHFMPRP, the “shrunken log2 fold change” value is 1.55.

Take RRIRARPPRLPRPRPRPIGVPRP: the “shrunken log2 fold change” value came out at 0.892.

Consider RRIRYRPPRLPRPRPRPPLGPRP, for which the “shrunken log2 fold change” value is -0.258.

As for RRIRCRPPRLPRPRPRPHINPRP, the “shrunken log2 fold change” value is -0.501.

In the case of RRIRDRPPRLPRPRPRPSRGPRP, the “shrunken log2 fold change” value came to 0.386.

For the sequence RRIRTRPPRLPRPRPRPLYMPRP, the “shrunken log2 fold change” value is -0.859.

Take RRIRQRPPRLPRPRPRPFNHPRP: the “shrunken log2 fold change” value is 0.0419.

For the sequence RRIRDRPPRLPRPRPRPIRHPRP, the “shrunken log2 fold change” value is -0.0425.

With RRIRYRPPRLPRPRPRPINTPRP, the “shrunken log2 fold change” value is -0.274.

Turning to RRIRKRPPRLPRPRPRPFWPPRP, the “shrunken log2 fold change” value amounted to 0.537.

Regarding RRIRLRPPRLPRPRPRPVRVPRP, the “shrunken log2 fold change” value worked out at 0.428.

As for RRIRKRPPRLPRPRPRPRWCPRP, the “shrunken log2 fold change” value is 0.251.

Turning to RRIRTRPPRLPRPRPRPNVMPRP, the “shrunken log2 fold change” value came out at 0.0814.

As to RRIRWRPPRLPRPRPRPIVYPRP, the “shrunken log2 fold change” value was -0.0137.

On to RRIRDRPPRLPRPRPRPLWDPRP, for which the “shrunken log2 fold change” value was -0.0822.

With RRIRMRPPRLPRPRPRPYEDPRP, the “shrunken log2 fold change” value was 0.477.

With RRIRERPPRLPRPRPRPGVEPRP, the “shrunken log2 fold change” value was -0.194.

In the case of RRIRIRPPRLPRPRPRPCRIPRP, the “shrunken log2 fold change” value was -0.0204.

With RRIRRRPPRLPRPRPRPYLAPRP, the “shrunken log2 fold change” value was -0.185.

Turning to RRIRRRPPRLPRPRPRPLQVPRP, the “shrunken log2 fold change” value is 0.000182.

For RRIRHRPPRLPRPRPRPGTVPRP, the “shrunken log2 fold change” value is -0.139.

As to RRIRERPPRLPRPRPRPIEMPRP, the “shrunken log2 fold change” value is -0.0653.

RRIRLRPPRLPRPRPRPAPYPRP: the “shrunken log2 fold change” value stood at 0.0426.

As to RRIRKRPPRLPRPRPRPTQWPRP, the “shrunken log2 fold change” value turned out to be 0.622.

For the sequence RRIRQRPPRLPRPRPRPWFFPRP, the “shrunken log2 fold change” value was -0.0396.

Consider RRIRARPPRLPRPRPRPLHHPRP, for which the “shrunken log2 fold change” value is -0.0724.

For RRIRYRPPRLPRPRPRPIWSPRP, the “shrunken log2 fold change” value was -0.0646.

For RRIRVRPPRLPRPRPRPLKHPRP, the “shrunken log2 fold change” value is -0.486.

As for RRIRNRPPRLPRPRPRPTQYPRP, the “shrunken log2 fold change” value was found to be 0.095.

With RRIRRRPPRLPRPRPRPHQAPRP, the “shrunken log2 fold change” value was -0.019.

Regarding RRIRERPPRLPRPRPRPPSYPRP, the “shrunken log2 fold change” value is -0.0583.

In the case of RRIRMRPPRLPRPRPRPFNVPRP, the “shrunken log2 fold change” value was -0.0076.

As for RRIRHRPPRLPRPRPRPYSKPRP, the “shrunken log2 fold change” value was -1.03.

Turning to RRIRNRPPRLPRPRPRPTSAPRP, the “shrunken log2 fold change” value was determined as 0.163.

As to RRIRCRPPRLPRPRPRPYNPPRP, the “shrunken log2 fold change” value was -1.15.

In the case of RRIRCRPPRLPRPRPRPNDYPRP, the “shrunken log2 fold change” value was -0.42.

For RRIRDRPPRLPRPRPRPMPHPRP, the “shrunken log2 fold change” value is -0.0342.

As for RRIRYRPPRLPRPRPRPRKDPRP, the “shrunken log2 fold change” value is -0.288.

For the sequence RRIRARPPRLPRPRPRPNLMPRP, the “shrunken log2 fold change” value is -0.0139.

Regarding RRIRKRPPRLPRPRPRPLKTPRP, the “shrunken log2 fold change” value was -0.151.

With RRIRMRPPRLPRPRPRPSWWPRP, the “shrunken log2 fold change” value was 0.169.

For RRIRYRPPRLPRPRPRPMLYPRP, the “shrunken log2 fold change” value was -0.877.

Consider RRIRFRPPRLPRPRPRPMYLPRP, for which the “shrunken log2 fold change” value was -0.376.

With RRIRSRPPRLPRPRPRPRQTPRP, the “shrunken log2 fold change” value was 0.0651.

For the sequence RRIRIRPPRLPRPRPRPLTDPRP, the “shrunken log2 fold change” value was -0.201.

For RRIRARPPRLPRPRPRPRGFPRP, the “shrunken log2 fold change” value turned out to be 0.604.

Turning to RRIRTRPPRLPRPRPRPWSVPRP, the “shrunken log2 fold change” value was -0.199.

In the case of RRIRWRPPRLPRPRPRPHIYPRP, the “shrunken log2 fold change” value is -0.358.

For RRIRKRPPRLPRPRPRPIFEPRP, the “shrunken log2 fold change” value came out at 0.381.

On to RRIRVRPPRLPRPRPRPNKIPRP, for which the “shrunken log2 fold change” value was -0.295.

As to RRIRPRPPRLPRPRPRPHLKPRP, the “shrunken log2 fold change” value is -0.000265.

For RRIRERPPRLPRPRPRPQFVPRP, the “shrunken log2 fold change” value is -0.312.

In the case of RRIRKRPPRLPRPRPRPGRVPRP, the “shrunken log2 fold change” value was 0.58.

Turning to RRIRMRPPRLPRPRPRPNSCPRP, the “shrunken log2 fold change” value was -0.0381.

Regarding RRIRFRPPRLPRPRPRPNKHPRP, the “shrunken log2 fold change” value is -0.348.

In the case of RRIRFRPPRLPRPRPRPCAPPRP, the “shrunken log2 fold change” value is -0.121.

As for RRIRCRPPRLPRPRPRPHHTPRP, the “shrunken log2 fold change” value was -1.04.

For RRIRQRPPRLPRPRPRPNQWPRP, the “shrunken log2 fold change” value amounted to 0.0886.

Take RRIRHRPPRLPRPRPRPHHMPRP: the “shrunken log2 fold change” value is -0.324.

Regarding RRIRVRPPRLPRPRPRPIAHPRP, the “shrunken log2 fold change” value was -0.126.

In the case of RRIRWRPPRLPRPRPRPSNKPRP, the “shrunken log2 fold change” value was -0.403.

For the sequence RRIRNRPPRLPRPRPRPFMTPRP, the “shrunken log2 fold change” value was -0.429.

For the sequence RRIRYRPPRLPRPRPRPYWKPRP, the “shrunken log2 fold change” value was -0.0135.

As to RRIRVRPPRLPRPRPRPSWEPRP, the “shrunken log2 fold change” value is -0.0979.

As to RRIRNRPPRLPRPRPRPQVAPRP, the “shrunken log2 fold change” value was 0.14.

RRIRFRPPRLPRPRPRPPASPRP: the “shrunken log2 fold change” value is 0.574.
